B1: H1H13301P2 (antibody, V domains shown)
VH: QVQLVESGGGVVQPGTSLRLSCVASGFTFRNFGMHWVRQAPGKGLEWVANIWFDGSNENYVESIQGRFTISRDNSKNTLNLQMNSLRAEDSAVYYCVREGILGTTNPYDAFDVWGQGTMVTVSS
VL: not shown
B2: H4H13301P2 (antibody, human IgG4, V domains shown)
VH: B1 VH
VL: not shown
B3: H4H13295P2 (antibody, human IgG4, V domains shown)
VH: QVQLVESGGGVVQPGRSLRVSCVVSGFTFSSFGMHWVRQAPDKGLEWVAVIWYDGSNDYYSDSVKGRFTISRDNSKNTLFLQMNRLRAEDTAVYYCARANNWNRFDAFDLWGQGTMVTVSS
VL: not shown
B4: H4H13325P2 (antibody, human IgG4, V domains shown)
VH: EVQLLESGGGWVQPGGSLRLSCAASGFAFSNYAMNWVRQTPGKGLEWVSVISSSGGNTYYADSVKGRFAISRDNSRDTLHLQMNRLRVEDTAVYYCAKEIRPYYDLSYYYGMDVWGQGTTVTVSS
VL: not shown
B5: H1H13316P2 (antibody, V domains shown)
VH: EVQLVESGGGLVQPGGSLRLSCAASGFTFRSYVMSWFRQAPGKGLEWVSGMSGSGGSTSYADSVKGRFTISRDNSKNTLYLLMNSLRTEDTAVYYCAKENGANWNYGYYGMDVWGQGTTVTVSS
VL: not shown
B6: H4H13316P2 (antibody, human IgG4, V domains shown)
VH: B5 VH
VL: not shown
B7: H4H13306P2 (antibody, human IgG4, V domains shown)
VH: EVQLVESGGGLVQPGTSLRLSCAASGFTFDDYAMHWVRQAPGKGLEWVSGITWNSYNIDYADSVKGRFTISRDNAKNSLYLQMNSLRAEDTALYYCAKDDDYSNYVYFDYWGQGTLVTVSS
VL: not shown
B8: H4H14638D (bispecific antibody, human IgG4, V domains shown)
VH 1: QVQLVESGGGVVQPGRSLRLSCAASGFTFSNFGMHWVRQAPGKGLEWVAGIWFDGSNKNYIDSVKGRFTISRDNSKNTLYLQMNSLRAEDTAVYYCAREGYDSGTDYIPYDIFDIWGQGTMVTVSS
VH 2: EVQLVESGGGLVQPGGSLRLSCAASGFIVTTNYMTWLRQAPGKGLEWVSLIYSSGHTYYADSVKGRFTISRHNSKNTLYLQMDSLRAEDTAVYYCASAFAADVFDIWGQGTMVTVSS
VL: not shown
B9: H4H16448D (bispecific antibody, human IgG4, V domains shown)
VH 1: QVQLVESGGGVVQPGRSLRLSCVASGFSFSNFGMHWVRQAPGKGLEWVAIIWYDGSNKYYSDSVKGRFTISRDNSKNTLYLQMNSLRVDDTAVYYCARFDRWKFDAFDIWGQGTMVTVSS
VH 2: B8 VH 2
VL: not shown
B10: H4H14637D (bispecific antibody, human IgG4, V domains shown)
VH 1: B1 VH
VH 2: B8 VH 2
VL: not shown
B11: H4H16449D (bispecific antibody, human IgG4, V domains shown)
VH 1: QVQLVESGGGVVQPGRSLRLSCAASGFTFSSFAMHWVRQAPGKGLEWVAVIWYDGSNDYYAASVKGRFTISRDNSKNTLYLEMNRLRAEDTAVYHCARDNWNYWGGMDVWGQGTTVTVSS
VH 2: B8 VH 2
VL: not shown
B12: H4H16446D (bispecific antibody, human IgG4, V domains shown)
VH 1: QVQLVESGGGVVQPGRSLRLSCAVSGFTFSSYGMHWVRQAPGKGLEWVANIWYDGTNDYYPYSVKGRFTISRDNSQNTLYLQMNSLRAEDTAVYYCAREDFINYRSFDYWGQGTLVTVSS
VH 2: B8 VH 2
VL: not shown
B13: H4H13302P2 (antibody, human IgG4, V domains shown)
VH: B8 VH 1
VL: not shown
B14: H4H16447D (bispecific antibody, human IgG4, V domains shown)
VH 1: QVQLVESGGGVVQPGRSLRLSCAASGFTFSSYAMHWVRQAPGRGLEWVAVIWHDGDVEYYVDSVKDRFTISRDNSKSTLYLQMNSLRAEDTALYYCAREAWDLLRPFDYWGQGTLVTVSS
VH 2: B8 VH 2
VL: not shown
B15: H4H16445D (bispecific antibody, human IgG4, V domains shown)
VH 1: QVQLVESGGGVVQPGGSLRLSCAASGFTFSGYGMHWVRQAPGKGLEWMAVIWYDGSNDYYPDSVKGRFTISRDNSKNTLYLQMNSLRVEDTAVYYCARDAWDLLRSFDYWGQGTLVTVSS
VH 2: B8 VH 2
VL: not shown
B16: H4H13312P2 (antibody, human IgG4, V domains shown)
VH: B8 VH 2
VL: not shown
B17: H4H14636D (bispecific antibody, human IgG4, V domains shown)
VH 1: EVQLVESGGGLVQPGGSLRLSCAASGFIFSNYEMNWVRQAPGKGLEWISYITSSGNMKYYADSVKGRFTISRDNDKNSLYLQMSSLRVEDTAVYYCVRGGRFLEWLTYYVMVVWGQGTTVTVSS
VH 2: B8 VH 2
VL: not shown
B18: H4H14641D (bispecific antibody, human IgG4, V domains shown)
VH 1: QVQLVESGGGVVQPGRSLRLSCSASGFSFSHFGMHWVRQVPGGGLEWVTSIWFDGSNRYYADSLKGRFTISRDNSKNTLYLEMNSLRAEDTAVYYCVREGILGTTNPYDVFDVWGQGTMVTVSS
VH 2: B8 VH 2
VL: not shown
B19: H4H13313P2 (antibody, human IgG4, V domains shown)
VH: B18 VH 1
VL: not shown
B20: H4H13291P2 (antibody, human IgG4, V domains shown)
VH: B15 VH 1
VL: not shown
Throughout, for % Inhibition (HEK293/SRE-Luc Blocking Activity, 1 h mAb pre-bind): test concentration or dose not given here.

Sequence of human MET (c-Met, hepatocyte growth factor receptor), endogenous on human cell lines (P08581 25-1390 limits assumed, form in doubt): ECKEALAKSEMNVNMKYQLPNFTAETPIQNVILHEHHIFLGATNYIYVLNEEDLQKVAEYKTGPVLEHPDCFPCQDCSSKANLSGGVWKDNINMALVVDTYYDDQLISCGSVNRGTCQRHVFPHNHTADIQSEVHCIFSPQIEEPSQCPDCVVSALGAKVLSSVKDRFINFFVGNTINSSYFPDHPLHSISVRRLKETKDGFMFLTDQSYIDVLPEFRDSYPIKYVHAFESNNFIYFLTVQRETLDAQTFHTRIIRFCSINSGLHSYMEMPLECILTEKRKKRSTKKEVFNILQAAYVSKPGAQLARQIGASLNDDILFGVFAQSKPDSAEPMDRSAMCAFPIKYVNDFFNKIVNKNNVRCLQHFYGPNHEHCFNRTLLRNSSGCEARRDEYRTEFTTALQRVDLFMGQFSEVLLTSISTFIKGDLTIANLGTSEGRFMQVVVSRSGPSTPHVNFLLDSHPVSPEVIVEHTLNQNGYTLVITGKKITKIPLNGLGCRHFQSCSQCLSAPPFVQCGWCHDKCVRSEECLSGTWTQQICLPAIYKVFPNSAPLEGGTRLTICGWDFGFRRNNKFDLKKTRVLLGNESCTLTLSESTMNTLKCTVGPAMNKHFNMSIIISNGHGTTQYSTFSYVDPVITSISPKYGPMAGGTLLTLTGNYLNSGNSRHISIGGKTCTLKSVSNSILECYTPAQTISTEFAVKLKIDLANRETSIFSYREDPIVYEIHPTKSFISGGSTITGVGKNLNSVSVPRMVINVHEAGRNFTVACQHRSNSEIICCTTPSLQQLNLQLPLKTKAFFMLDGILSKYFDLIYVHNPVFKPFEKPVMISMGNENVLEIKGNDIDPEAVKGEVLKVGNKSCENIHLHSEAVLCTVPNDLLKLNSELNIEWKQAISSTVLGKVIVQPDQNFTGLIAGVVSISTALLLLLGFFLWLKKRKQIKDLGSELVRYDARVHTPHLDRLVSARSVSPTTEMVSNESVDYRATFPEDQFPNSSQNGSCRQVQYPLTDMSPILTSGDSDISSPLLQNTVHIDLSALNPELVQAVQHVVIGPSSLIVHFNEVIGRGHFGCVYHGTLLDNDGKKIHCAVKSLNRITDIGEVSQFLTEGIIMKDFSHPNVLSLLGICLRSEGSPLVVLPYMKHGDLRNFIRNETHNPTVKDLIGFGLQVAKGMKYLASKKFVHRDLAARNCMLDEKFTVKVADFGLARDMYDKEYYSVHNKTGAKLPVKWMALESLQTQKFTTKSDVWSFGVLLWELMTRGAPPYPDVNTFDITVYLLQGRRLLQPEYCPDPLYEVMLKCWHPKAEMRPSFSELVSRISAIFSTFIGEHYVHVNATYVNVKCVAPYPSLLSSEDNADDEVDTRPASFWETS

The assay addresses human MET (c-Met, hepatocyte growth factor receptor), endogenous on human cell lines (human, UniProt P08581 25-1390). The assay can be described thus: cell-based or functional assay.
Take B1: the “% Inhibition (HEK293/SRE-Luc Blocking Activity, 1 h mAb pre-bind)” value is 42%; the “Fold Response (Ligand (HGF)-Independent HEK293/SRE-Luc Activation)” value was 1.4 fold; the “IC50 (HEK293/SRE-Luc Blocking Activity, 1 h mAb pre-bind)” value was determined as 3300 pM.
For B2 the same measures were 40%, 1.6 fold and 1500 pM.
As for B3, the “% Inhibition (HEK293/SRE-Luc Blocking Activity, 1 h mAb pre-bind)” value was 70%; the “EC50 (Ligand (HGF)-Independent HEK293/SRE-Luc Activation)” value is 300 pM; the “Fold Response (Ligand (HGF)-Independent HEK293/SRE-Luc Activation)” value came out at 2.8 fold; the “IC50 (HEK293/SRE-Luc Blocking Activity, 1 h mAb pre-bind)” value amounted to 55 pM.
For B4, the “% Inhibition (HEK293/SRE-Luc Blocking Activity, 1 h mAb pre-bind)” value was found to be 69%; the “EC50 (Ligand (HGF)-Independent HEK293/SRE-Luc Activation)” value amounted to 190 pM; the “Fold Response (Ligand (HGF)-Independent HEK293/SRE-Luc Activation)” value came to 4.3 fold; the “IC50 (HEK293/SRE-Luc Blocking Activity, 1 h mAb pre-bind)” value is 13 pM.
For B5, the “% Inhibition (HEK293/SRE-Luc Blocking Activity, 1 h mAb pre-bind)” value turned out to be 86%; the “Fold Response (Ligand (HGF)-Independent HEK293/SRE-Luc Activation)” value came to 1.7 fold; the “IC50 (HEK293/SRE-Luc Blocking Activity, 1 h mAb pre-bind)” value came out at 40 pM.
For the molecule B6, the “% Inhibition (HEK293/SRE-Luc Blocking Activity, 1 h mAb pre-bind)” value worked out at 74%; the “EC50 (Ligand (HGF)-Independent HEK293/SRE-Luc Activation)” value was found to be 47 pM; the “Fold Response (Ligand (HGF)-Independent HEK293/SRE-Luc Activation)” value was found to be 2.3 fold; the “IC50 (HEK293/SRE-Luc Blocking Activity, 1 h mAb pre-bind)” value worked out at 7.8 pM.
As to B7, the “EC50 (Ligand (HGF)-Independent HEK293/SRE-Luc Activation)” value came to 13 pM.
Consider B8, for which the “% Inhibition (HEK293/SRE-Luc Blocking Activity, 1 h mAb pre-bind)” value was 79%; the “EC50 (Ligand (HGF)-Independent HEK293/SRE-Luc Activation)” value is 5900 pM; the “Fold Response (Ligand (HGF)-Independent HEK293/SRE-Luc Activation)” value was determined as 2.6 fold; the “IC50 (HEK293/SRE-Luc Blocking Activity, 1 h mAb pre-bind)” value stood at 1100 pM.
The matching figures for B9: 87%, 910 pM, 4.3 fold and 620 pM.
Turning to B10, the “% Inhibition (HEK293/SRE-Luc Blocking Activity, 1 h mAb pre-bind)” value came out at 73%; the “EC50 (Ligand (HGF)-Independent HEK293/SRE-Luc Activation)” value was 4100 pM; the “Fold Response (Ligand (HGF)-Independent HEK293/SRE-Luc Activation)” value came to 2.1 fold.
As for B11, the “% Inhibition (HEK293/SRE-Luc Blocking Activity, 1 h mAb pre-bind)” value was found to be 85%; the “EC50 (Ligand (HGF)-Independent HEK293/SRE-Luc Activation)” value stood at 420 pM; the “Fold Response (Ligand (HGF)-Independent HEK293/SRE-Luc Activation)” value is 4.2 fold; the “IC50 (HEK293/SRE-Luc Blocking Activity, 1 h mAb pre-bind)” value amounted to 320 pM.
The matching figures for B12: 83%, 1400 pM, 4 fold and 1000 pM.
In the case of B13, the “% Inhibition (HEK293/SRE-Luc Blocking Activity, 1 h mAb pre-bind)” value was 45%; the “Fold Response (Ligand (HGF)-Independent HEK293/SRE-Luc Activation)” value was 1.8 fold; the “IC50 (HEK293/SRE-Luc Blocking Activity, 1 h mAb pre-bind)” value amounted to 1600 pM.
As for B14, the “% Inhibition (HEK293/SRE-Luc Blocking Activity, 1 h mAb pre-bind)” value worked out at 76% and the “EC50 (Ligand (HGF)-Independent HEK293/SRE-Luc Activation)” value was found to be 1400 pM.
Consider B15, for which the “% Inhibition (HEK293/SRE-Luc Blocking Activity, 1 h mAb pre-bind)” value is 81%; the “EC50 (Ligand (HGF)-Independent HEK293/SRE-Luc Activation)” value was 1000 pM; the “Fold Response (Ligand (HGF)-Independent HEK293/SRE-Luc Activation)” value stood at 4.3 fold; the “IC50 (HEK293/SRE-Luc Blocking Activity, 1 h mAb pre-bind)” value was 520 pM.
In the case of B16, the “% Inhibition (HEK293/SRE-Luc Blocking Activity, 1 h mAb pre-bind)” value worked out at 48% and the “EC50 (Ligand (HGF)-Independent HEK293/SRE-Luc Activation)” value was 120 pM.
Take B17: the “% Inhibition (HEK293/SRE-Luc Blocking Activity, 1 h mAb pre-bind)” value came out at 74%; the “EC50 (Ligand (HGF)-Independent HEK293/SRE-Luc Activation)” value came to 280 pM; the “Fold Response (Ligand (HGF)-Independent HEK293/SRE-Luc Activation)” value was 2.8 fold.
B18: the “% Inhibition (HEK293/SRE-Luc Blocking Activity, 1 h mAb pre-bind)” value is 75%; the “EC50 (Ligand (HGF)-Independent HEK293/SRE-Luc Activation)” value is 84000 pM; the “Fold Response (Ligand (HGF)-Independent HEK293/SRE-Luc Activation)” value was found to be 4.4 fold; the “IC50 (HEK293/SRE-Luc Blocking Activity, 1 h mAb pre-bind)” value stood at 2700 pM.
For the molecule B19, the “% Inhibition (HEK293/SRE-Luc Blocking Activity, 1 h mAb pre-bind)” value stood at 47%; the “Fold Response (Ligand (HGF)-Independent HEK293/SRE-Luc Activation)” value amounted to 1.2 fold; the “IC50 (HEK293/SRE-Luc Blocking Activity, 1 h mAb pre-bind)” value was 2300 pM.
Turning to B20, the “% Inhibition (HEK293/SRE-Luc Blocking Activity, 1 h mAb pre-bind)” value turned out to be 61%; the “EC50 (Ligand (HGF)-Independent HEK293/SRE-Luc Activation)” value is 390 pM; the “Fold Response (Ligand (HGF)-Independent HEK293/SRE-Luc Activation)” value is 2.7 fold; the “IC50 (HEK293/SRE-Luc Blocking Activity, 1 h mAb pre-bind)” value is 130 pM.
